Measurements reported in patent US20240200091A1, “USE OF PROTOPORPHYRINOGEN OXIDASE” (BEIJING DABEINONG BIOTECHNOLOGY CO., LTD., priority 2021, published 2024).

Columns and labels:
Format in all cases: in vivo
Conditions in all cases: 7 DAT, number of plants of 24 per genotype, grades
[1] = system: Arabidopsis thaliana T1 plants; experiment: sulfentrazone tolerance of transgenic Arabidopsis thaliana T1 plants (spray, grade of pesticide damage)
From the text: (§1) The transformed Arabidopsis thaliana T1 plants were initially selected using glufosinate herbicide. The Arabidopsis thaliana T1 plants (PPO1A) into which the PPO1A nucleotide sequence was introduced, the Arabidopsis thaliana T1 plants (PPO2A) into which the PPO2A nucleotide sequence was introduced, the Arabidopsis thaliana T1 plants (PPO3A) into which the PPO3A nucleotide sequence was introduced, the Arabidopsis thaliana T1 plants (PPO4A) into which the PPO4A nucleotide sequence was introduced, the Arabidopsis thaliana T1 plants (PPO5A) into which the PPO5A nucleotide sequence was introduced, the Arabidopsis thaliana T1 plants (PPO6A) into which the PPO6A nucleotide sequence was introduced, the Arabidopsis thaliana T1 plants (PPO7A) into which the PPO7A nucleotide sequence was introduced, the Arabidopsis thaliana T1 plants (PPO8A) into which the PPO8A nucleotide sequence was introduced, the Arabidopsis thaliana T1 plants (PPO9A) into which the PPO9A nucleotide sequence was introduced, the Arabidopsis thaliana T1 plants (PPO10A) into which the […] nucleotide sequence was introduced, the Arabidopsis thaliana T1 plants (PPO11A) into which the PPO11A nucleotide sequence was introduced, the Arabidopsis thaliana T1 plants (PPO12A) into which the PPO12A nucleotide sequence was introduced, the Arabidopsis thaliana T1 plants (PPO13A) into which the PPO13A nucleotide sequence was introduced, the Arabidopsis thaliana T1 plants (PPO14A) into which the PPO14A nucleotide sequence was introduced, the Arabidopsis thaliana T1 plants (PPO-ATA) into which the PPO-ATA nucleotide sequence was introduced, the Arabidopsis thaliana T1 plants (PPO-APA) into which the PPO-APA nucleotide sequence was introduced, the Arabidopsis thaliana T1 plants (control vector) into which the control vector was introduced, and the wild-type Arabidopsis thaliana plants (CK) (with 24 plants being included in each genotype) (18 days after sowing) were sprayed with oxyfluorfen at three concentrations (180 g ai/ha (one-fold field concentration, 1×), 720 g ai/ha (four-fold field concentration, 4×), and 0 g ai/ha (water, 0×)), saflufenacil at three concentrations (25 g ai/ha (one-fold field concentration, 1×), 100 g ai/ha (four-fold field concentration, 4×), and 0 g ai/ha (water, 0×)), flumioxazin at three concentrations (60 g ai/ha (one-fold field concentration, 1×), 240 g ai/ha (four-fold field concentration, 4×), and 0 g ai/ha (water, 0×), and sulfentrazone at three concentrations (450 g ai/ha (one-fold field concentration, 1×), 900 g ai/ha (two-fold field concentration, 2×), and 0 g ai/ha (water, 0×) to determine the tolerance of Arabidopsis thaliana to the herbicides. After 7 days of spraying (7 DAT), the damage level of each plant caused by the herbicide was evaluated according to the average of the damage levels (%) of plants (the average of the damage levels (%) of plants=the injured leaf area/the total leaf area×[…]), i.e., the grade of pesticide damage: grade 0 means that the growth status of plants is essentially consistent with those sprayed with the blank solvent (water); grade 1 means that the average of the damage levels of plants is less than 10%; grade 2 means that the average of the damage levels of plants is greater than […]; and grade 3 means that the average of the damage levels of plants is 100%. The plants having a growth status falling within grades 0 and 1 are classified as highly resistant plants; those having a growth status falling within grade 2 are classified as poorly resistant plants; and those having a growth status falling within grade 3 are classified as non-resistant plants.

[2] = system: Arabidopsis thaliana T1 plants; experiment: saflufenacil tolerance of transgenic Arabidopsis thaliana T1 plants (spray, grade of pesticide damage)
From the text: as §1

[3] = system: Arabidopsis thaliana T1 plants; experiment: flumioxazin tolerance of transgenic Arabidopsis thaliana T1 plants (spray, grade of pesticide damage)
From the text: as §1

[4] = system: Arabidopsis thaliana T1 plants; experiment: oxyfluorfen tolerance of transgenic Arabidopsis thaliana T1 plants (spray, grade of pesticide damage)
From the text: as §1

B1: PPO2A: nucleotide sequence encoding microbial protoporphyrinogen oxidase PPO2 (SEQ ID NO:2), Arabidopsis thaliana/soybean common codon usage bias (nucleic acid)
DNA: ATGAGAGCCTTGCTTCTCTACAGCAGTCAAGAAGGGCAGACAAGAAAAATCATTCAGAGAATAGCAGCTCAAATGCCTGAGTACACTTGTGAAGTTCAAGATTTGCATCAATCAATAGATATTGATTGGGCCGAGTATGACAAAGTTTTAATTGGTGCATCCATCCGGTATGGACGTTTGAACCCTGCACTTTACAGGTTCATTGAGCATCACCTCGTTGGTTTGACCTCAAGGAAGGCTGCTTTCTTCTGCGTAAATCTTACCGCAAGGAAAGAACAACAAGGGAAAGACACTCCACAGGGCTCTGCATATATTCAAACATTTTTGAAGAAGAGTGCTTGGCAACCCGAAAGGATTGCTGTTTTTGCTGGTGCCCTTTATTATCCAAGATACAGATGGTTTGATAAGATGATGATCCGACTCATCATGACGTTAACTGGAGGAGAAACTGATACATCTCAGGAGGTGGAATATACAAACTGGGATAAAGTCGTGAAGTTTGCAGAGCAGTTTCGGAATTGGTGA
modifications: PPO2A Nucleotide Sequence
With B1 the “The grade of pesticide: grade 0” value ([1]; sulfentrazone 450 g ai/ha (1×)) was 24, the “The grade of pesticide: grade 1” value ([1]; sulfentrazone 450 g ai/ha (1×)) was 0 and the “The grade of pesticide: grade 2” value ([1]; sulfentrazone 450 g ai/ha (1×)) was 0. The “The grade of pesticide: grade 3” value ([1]; sulfentrazone 450 g ai/ha (1×)) was 0, the “The grade of pesticide: grade 0” value ([1]; sulfentrazone 900 g ai/ha (2×)) was 20 and the “The grade of pesticide: grade 1” value ([1]; sulfentrazone 900 g ai/ha (2×)) was 4. The “The grade of pesticide: grade 2” value ([1]; sulfentrazone 900 g ai/ha (2×)) was 0, the “The grade of pesticide: grade 3” value ([1]; sulfentrazone 900 g ai/ha (2×)) was 0 and the “The grade of pesticide damage/plant: grade 0” value ([2]; saflufenacil 25 g ai/ha (1×)) was 24 plant. The “The grade of pesticide damage/plant: grade 1” value ([2]; saflufenacil 25 g ai/ha (1×)) was 0 plant, the “The grade of pesticide damage/plant: grade 2” value ([2]; saflufenacil 25 g ai/ha (1×)) was 0 plant and the “The grade of pesticide damage/plant: grade 3” value ([2]; saflufenacil 25 g ai/ha (1×)) was 0 plant. For the same molecule, the “The grade of pesticide damage/plant: grade 0” value ([2]; saflufenacil 100 g ai/ha (4×)) was 6 plant, the “The grade of pesticide damage/plant: grade 1” value ([2]; saflufenacil 100 g ai/ha (4×)) was 18 plant and the “The grade of pesticide damage/plant: grade 2” value ([2]; saflufenacil 100 g ai/ha (4×)) was 0 plant. For the same molecule, the “The grade of pesticide damage/plant: grade 3” value ([2]; saflufenacil 100 g ai/ha (4×)) was 0 plant, the “The grade of pesticide damage/plant: grade 0” value ([3]; flumioxazin 60 g ai/ha (1×)) was 24 plant and the “The grade of pesticide damage/plant: grade 1” value ([3]; flumioxazin 60 g ai/ha (1×)) was 0 plant. The “The grade of pesticide damage/plant: grade 2” value ([3]; flumioxazin 60 g ai/ha (1×)) was 0 plant, the “The grade of pesticide damage/plant: grade 3” value ([3]; flumioxazin 60 g ai/ha (1×)) was 0 plant and the “The grade of pesticide damage/plant: grade 0” value ([3]; flumioxazin 240 g ai/ha (4×)) was 24 plant. The “The grade of pesticide damage/plant: grade 1” value ([3]; flumioxazin 240 g ai/ha (4×)) was 0 plant, the “The grade of pesticide damage/plant: grade 2” value ([3]; flumioxazin 240 g ai/ha (4×)) was 0 plant and the “The grade of pesticide damage/plant: grade 3” value ([3]; flumioxazin 240 g ai/ha (4×)) was 0 plant. For the same molecule, the “The grade of pesticide damage/plant: grade 0” value ([4]; oxyfluorfen 180 g ai/ha (1×)) was 24 plant, the “The grade of pesticide damage/plant: grade 1” value ([4]; oxyfluorfen 180 g ai/ha (1×)) was 0 plant and the “The grade of pesticide damage/plant: grade 2” value ([4]; oxyfluorfen 180 g ai/ha (1×)) was 0 plant. The “The grade of pesticide damage/plant: grade 3” value ([4]; oxyfluorfen 180 g ai/ha (1×)) was 0 plant, the “The grade of pesticide damage/plant: grade 0” value ([4]; oxyfluorfen 720 g ai/ha (4×)) was 20 plant and the “The grade of pesticide damage/plant: grade 1” value ([4]; oxyfluorfen 720 g ai/ha (4×)) was 4 plant. For the same molecule, the “The grade of pesticide damage/plant: grade 2” value ([4]; oxyfluorfen 720 g ai/ha (4×)) was 0 plant and the “The grade of pesticide damage/plant: grade 3” value ([4]; oxyfluorfen 720 g ai/ha (4×)) was 0 plant.

B2: PPO3A: nucleotide sequence encoding microbial protoporphyrinogen oxidase PPO3 (SEQ ID NO:3), Arabidopsis thaliana/soybean common codon usage bias (nucleic acid)
DNA: ATGAGTGCCCTGTTGTTGTATTGTTCAACTGATGGTCAAACCAAGAAGATAATGACACAGATAGCTAATGAACTGAGACAACATGGTTATGAATGTGATGTGCGGGATCTTACTTCTGTTCAACAAAATCTCAATCTTTCAGCTTACAACAAAGTTTTGGTAGGAGCTTCCATAAGATATGGATACTTCAATAAAGCACTTGACAAGTTCATCACGAGGCACCTCTCTCAGTTAAACAACATGCCTTCTGCTTTCTTTGGTGTCAATTTGACTGCAAGAAAAGAAGAGAAGAGCACTCCCGAAACAAACAGTTACATCTGCAAGTTTCTAGACAAAACACCATGGAAACCAACCTTAACTGGAGTCTTCGCCGGGGCGCTTTTTTATCCTCGTTACAAATGGATTGATCGAGTGATGATTCAGCTTATCATGAAGATGACTAAAGGAGAAACCGATCCGACAAAAGAGATTGAGTATACAGATTGGAACAAGGTTTCGGAGTTTGCTACGAATTTTGCAAAGATTGGCTGA
modifications: PPO3A Nucleotide Sequence
B2 was tested, and the “The grade of pesticide: grade 0” value ([1]; sulfentrazone 450 g ai/ha (1×)) was 24, the “The grade of pesticide: grade 1” value ([1]; sulfentrazone 450 g ai/ha (1×)) was 0 and the “The grade of pesticide: grade 2” value ([1]; sulfentrazone 450 g ai/ha (1×)) was 0. The “The grade of pesticide: grade 3” value ([1]; sulfentrazone 450 g ai/ha (1×)) was 0, the “The grade of pesticide: grade 0” value ([1]; sulfentrazone 900 g ai/ha (2×)) was 20 and the “The grade of pesticide: grade 1” value ([1]; sulfentrazone 900 g ai/ha (2×)) was 4. The “The grade of pesticide: grade 2” value ([1]; sulfentrazone 900 g ai/ha (2×)) was 0, the “The grade of pesticide: grade 3” value ([1]; sulfentrazone 900 g ai/ha (2×)) was 0 and the “The grade of pesticide damage/plant: grade 0” value ([2]; saflufenacil 25 g ai/ha (1×)) was 24 plant. The “The grade of pesticide damage/plant: grade 1” value ([2]; saflufenacil 25 g ai/ha (1×)) was 0 plant, the “The grade of pesticide damage/plant: grade 2” value ([2]; saflufenacil 25 g ai/ha (1×)) was 0 plant and the “The grade of pesticide damage/plant: grade 3” value ([2]; saflufenacil 25 g ai/ha (1×)) was 0 plant. The “The grade of pesticide damage/plant: grade 0” value ([2]; saflufenacil 100 g ai/ha (4×)) was 2 plant, the “The grade of pesticide damage/plant: grade 1” value ([2]; saflufenacil 100 g ai/ha (4×)) was 22 plant and the “The grade of pesticide damage/plant: grade 2” value ([2]; saflufenacil 100 g ai/ha (4×)) was 0 plant. For the same molecule, the “The grade of pesticide damage/plant: grade 3” value ([2]; saflufenacil 100 g ai/ha (4×)) was 0 plant, the “The grade of pesticide damage/plant: grade 0” value ([3]; flumioxazin 60 g ai/ha (1×)) was 24 plant and the “The grade of pesticide damage/plant: grade 1” value ([3]; flumioxazin 60 g ai/ha (1×)) was 0 plant. The “The grade of pesticide damage/plant: grade 2” value ([3]; flumioxazin 60 g ai/ha (1×)) was 0 plant, the “The grade of pesticide damage/plant: grade 3” value ([3]; flumioxazin 60 g ai/ha (1×)) was 0 plant and the “The grade of pesticide damage/plant: grade 0” value ([3]; flumioxazin 240 g ai/ha (4×)) was 24 plant. The “The grade of pesticide damage/plant: grade 1” value ([3]; flumioxazin 240 g ai/ha (4×)) was 0 plant, the “The grade of pesticide damage/plant: grade 2” value ([3]; flumioxazin 240 g ai/ha (4×)) was 0 plant and the “The grade of pesticide damage/plant: grade 3” value ([3]; flumioxazin 240 g ai/ha (4×)) was 0 plant. For the same molecule, the “The grade of pesticide damage/plant: grade 0” value ([4]; oxyfluorfen 180 g ai/ha (1×)) was 24 plant, the “The grade of pesticide damage/plant: grade 1” value ([4]; oxyfluorfen 180 g ai/ha (1×)) was 0 plant and the “The grade of pesticide damage/plant: grade 2” value ([4]; oxyfluorfen 180 g ai/ha (1×)) was 0 plant. The “The grade of pesticide damage/plant: grade 3” value ([4]; oxyfluorfen 180 g ai/ha (1×)) was 0 plant, the “The grade of pesticide damage/plant: grade 0” value ([4]; oxyfluorfen 720 g ai/ha (4×)) was 20 plant and the “The grade of pesticide damage/plant: grade 1” value ([4]; oxyfluorfen 720 g ai/ha (4×)) was 4 plant. For the same molecule, the “The grade of pesticide damage/plant: grade 2” value ([4]; oxyfluorfen 720 g ai/ha (4×)) was 0 plant and the “The grade of pesticide damage/plant: grade 3” value ([4]; oxyfluorfen 720 g ai/ha (4×)) was 0 plant.
